Where two headings read alike, the source gives them in different places.
Key:
[1] = molecular target: T1, human CD3 E&D complex protein (Sino Biological Inc., CT026H0323H) (human, UniProt P07766 23-126; P04234 22-105); experiment: BLI, antibody on sensor
T1 construct: bought heterodimer; also called human CD3 protein (CT026H0323H)
Procedure: (§1) 100 μl SD buffer, various antibodies, human CD3 E&D complex protein (Sino Biological Inc., CT026H0323H), and cynomolgus monkey CD3 E&D complex protein (Sino Biological Inc., CT032-00323H) were added into 96-well black polystyrene semi-quantitative micro-well plate (Greiner, 675076) respectively. Fortebio Octet Red 96 was used for detection, and the sensor position was selected according to the sample position. The setting parameters of the instrument are as follows: operation steps: Baseline, Loading-1 nm, Baseline, Association and Dissociation; the operation time of each step depends on the speed of sample association and dissociation. The rotational speed is 1000 rpm and the temperature is 30° C. ForteBio Octet analysis software was used to analyze KD value.

[2] = molecular target: T2, cynomolgus monkey CD3 E&D complex protein (Sino Biological Inc., CT032-00323H) (cynomolgus monkey, UniProt Q95LI5 22-117; Q95LI8 22-105); experiment: BLI, antibody on sensor
T2 construct: bought heterodimer
T2 sequence (Q95LI5 22-117, chain 1 of 2): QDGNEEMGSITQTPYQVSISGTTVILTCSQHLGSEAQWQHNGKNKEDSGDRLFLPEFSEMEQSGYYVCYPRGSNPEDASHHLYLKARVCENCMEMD
T2 sequence (Q95LI8 22-105, chain 2 of 2): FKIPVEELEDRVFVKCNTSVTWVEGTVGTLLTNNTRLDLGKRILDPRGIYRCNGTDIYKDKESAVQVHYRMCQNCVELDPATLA
Procedure: as §1

[3] = molecular target: T3, human CD3 complex on Jurkat cells (human, UniProt P07766 23-207; P04234 22-171; P09693 23-182); experiment: flow cytometry on Jurkat cells (human CD3 complex), 'Jurkat cell line binding', Example 3.2 [cont) D]
T3 construct: whole, on cells; natural CD3 complex of Jurkat T cells (also used here for CD3 on T cells of human PBMC); also called human CD3 at the cell level; CD3 on T cells
T3 sequence (P07766 23-207, chain 1 of 3): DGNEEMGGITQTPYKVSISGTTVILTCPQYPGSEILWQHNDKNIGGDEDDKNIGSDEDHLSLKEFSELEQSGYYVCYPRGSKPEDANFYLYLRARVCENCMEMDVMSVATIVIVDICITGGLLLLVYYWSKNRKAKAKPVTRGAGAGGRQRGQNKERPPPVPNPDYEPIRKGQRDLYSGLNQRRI
T3 sequence (P04234 22-171, chain 2 of 3): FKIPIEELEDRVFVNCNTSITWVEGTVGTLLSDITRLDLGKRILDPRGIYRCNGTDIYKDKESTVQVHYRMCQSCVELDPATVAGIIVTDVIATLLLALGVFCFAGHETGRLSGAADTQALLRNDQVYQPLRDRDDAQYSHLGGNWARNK
T3 sequence (P09693 23-182, chain 3 of 3): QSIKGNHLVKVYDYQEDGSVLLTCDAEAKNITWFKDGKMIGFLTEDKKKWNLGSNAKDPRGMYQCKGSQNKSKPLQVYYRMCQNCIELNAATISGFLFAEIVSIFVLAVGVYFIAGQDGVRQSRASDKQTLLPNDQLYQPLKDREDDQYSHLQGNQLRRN
Procedure: Jurkat cells are immortalized human T lymphocytes, which express human CD3 complex. The cell line is used to detect the binding of the antibody to the cell. The detailed operation was as follows: Jurkat cells (Promega, J1621) was inoculated into U-shaped 96-well plate, 2×10⁵ for each well. The antibodies to be detected at a series of concentration gradients (the initial concentration of antibody molecule is 500 nM, 3 folds serial dilution) was added into the corresponding cell well, incubated at 4° C. for 30 minutes, and then PBS was used to wash out the unbound part. The sheep anti-human Fc PE fluorescent second antibody (Southern Biotech, J2815-5H87B) was added, then incubated at 4° C. for 15 minutes. and detected by flow cytometry ([…] BD). […] Some of these antibodies were selected to make a further binding curve at cell level.

[4] = molecular target: T1, human CD3 E&D complex protein (Sino …); experiment: BLI, antibody on sensor; remark: listed apart in the source
[5] = molecular target: T4, human CD3E&G complex (Sino Biological Inc., CT041-H0305H) (human, UniProt P07766 23-126; P09693 23-116); experiment: BLI, antibody on sensor
T4 construct: bought heterodimer; also called human CD3E&G antigen
T4 sequence (P07766 23-126, chain 1 of 2): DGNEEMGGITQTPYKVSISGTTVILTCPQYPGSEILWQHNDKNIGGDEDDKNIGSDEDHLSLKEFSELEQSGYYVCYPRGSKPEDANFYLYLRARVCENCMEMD
T4 sequence (P09693 23-116, chain 2 of 2): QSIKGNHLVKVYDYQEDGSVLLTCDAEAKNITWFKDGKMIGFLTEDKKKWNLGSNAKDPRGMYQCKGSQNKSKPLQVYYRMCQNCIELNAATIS

[6] = molecular target: T4, human CD3E&G complex (Sino Biological …); experiment: SPR, antigen on chip
Procedure: (§2) The CD3 equilibrium dissociation constant (KD) of Her2×CD3 bispecific antibody was determined using Biacore (GE Healthcare, T200), and the specific method is as follows:
(§3) The human CD3E&G antigen (Sino Biological Inc., CT041-H0305H) and Cynomolgus monkey CD3E&D antigen protein (Sino Biological Inc., CT032-00323H) were coupled to the chip surface. Afterwards, the affinity and kinetic constants were obtained by detecting the binding and dissociation between the chip surface antigen and the antibody in the mobile phase. The method includes chip preparation and affinity detection. 10-fold diluted 10×HBS-EP+(BR-1006-69, GE Healthcare) was used as the experimental buffer during measurement. […] After coupling, 1 M ethanolamine was injected to block the remaining activation sites. Affinity detection cycle is carried out for each concentration of antibody, and each cycle includes binding to antibody with this concentration and chip regeneration. The antibody after serial dilution (Her2-sp34.24: initial concentration 32 nM, 2 folds serial dilution; Her2-sp34.87: initial concentration 200 nM, 2 folds serial dilution; Her2-sp34.80, Her2-sp34.97, Her2-sp34.99, Her2-sp34.101: initial concentration 800 nM, 2 folds serial dilution; all dilute 5 concentration points), flows through the chip surface from low concentration to high concentration at 30 μl/min of the flow rate, with a binding time of 180 s and a dissociation time of 600 s. Finally, 10 mM Glycine pH 1.5 (BR-1003-54, GE Healthcare) was used to regenerate the chip. The data results were analyzed using the Biacore T200 analysis software (version 3.1), and the analysis model used was 1:1 combined model for dynamic analysis.

[7] = molecular target: T2, cynomolgus monkey CD3 E&D complex …; experiment: SPR, antigen on chip
Procedure: as §2, §3

T1 sequence (P07766 23-126, chain 1 of 2): as the sequence (P07766 23-126, chain 1 of 2) above
T1 sequence (P04234 22-105, chain 2 of 2): as the sequence (Q95LI8 22-105, chain 2 of 2) above, with V5I, K15N, V20I, T32S, N33D, N34I, A64T, N74S, L83V counted along it

Binder	Kd [1]	koff [1]	kon [1]	Kd [2]	koff [2]	kon [2]	EC50 [3]	Kd [4]	koff [4]	kon [4]	Kd [5]	koff [5]	kon [5]	Kd [6]	koff [6]	kon [6]	Kd [7]	koff [7]	kon [7]
hzsp34.24 (antibody, human IgG1, lambda, L234A L235A, V domains shown, IgG1 L234A L235A, lambda; parent of the CDR mutants) VH: EVQLVESGGGLVQPGGSLKLSCAASGFTFNTYAMNWVRQASGKGLEWVGRIRSKYNNYATYYADSVKDRFTISRDDSKSTLYLQMNSLKTEDTAVYYCARHGNFGQSYVSWFAYWGQGTTVTVSS VL: QAVVTQEPSLTVSPGGTVTLTCRSSTGAVTTSNYANWVQQKPGQAPRGLIGGTNKRAPGVPARFSGSLLGDKAALTLLGAQPEDEAEYYCALWYSNLWVFGQGTKLTVLG	0.718 nM	0.00247 s⁻¹	3.44e+06 M⁻¹ s⁻¹	0.738 nM	0.000941 s⁻¹	1.28e+06 M⁻¹ s⁻¹	1.25 nM	0.975 nM	0.000234 s⁻¹	240000 M⁻¹ s⁻¹	8 nM	0.00179 s⁻¹	224000 M⁻¹ s⁻¹	–	–	–	–	–	–
hzsp34.38 (antibody, human IgG1, kappa, L234A L235A, V domains shown, IgG1 L234A L235A, kappa) VH: EVQLVESGGGLVQPGGSLKLSCAASGFTFNTYAMNWVRQASGKGLEWVGRIRSKYNNYATYYADSVKDRFTISRDDSKSTLYLQMNSLKTEDTAVYYCARHGNFGNSYVSWFAYWGQGTTVTVSS VL: EIVMTQSPATLSVSPGERATLSCRSSTGAVTTSNYANWVQQKPGQAPRGLIGGTNKRAPGVPARFSGSGSGTEFTLTISSLQSEDFAVYYCALWYSNLWVFGQGTKLTVLR	12.7 nM	0.00505 s⁻¹	397000 M⁻¹ s⁻¹	6.36 nM	0.00183 s⁻¹	288000 M⁻¹ s⁻¹	7.85 nM	–	–	–	–	–	–	–	–	–	–	–	–
Her2-hzsp34.24 (bispecific antibody, IgG1, V domains shown, 1+1 trastuzumab x hzsp34.24, IgG1 LALA knob-into-hole; also called Her2-sp34.24; copies: 1 + 1 + 1 + 1) VH 1: not shown VL 1: not shown VH 2: EVQLVESGGGLVQPGGSLKLSCAASGFTFNTYAMNWVRQASGKGLEWVGRIRSKYNNYATYYADSVKDRFTISRDDSKSTLYLQMNSLKTEDTAVYYCARHGNFGQSYVSWFAYWGQGTTVTVSS VL 2: QAVVTQEPSLTVSPGGTVTLTCRSSTGAVTTSNYANWVQQKPGQAPRGLIGGTNKRAPGVPARFSGSLLGDKAALTLLGAQPEDEAEYYCALWYSNLWVFGQGTKLTVL	–	–	–	–	–	–	–	–	–	–	–	–	–	4.88 nM	0.00779 s⁻¹	1.6e+06 M⁻¹ s⁻¹	7.2 nM	0.008 s⁻¹	1.11e+06 M⁻¹ s⁻¹
hzsp34.40 (antibody, human IgG1, kappa, L234A L235A, V domains shown, IgG1 L234A L235A, kappa) VH: EVQLVESGGGLVQPGGSLKLSCAASGFTFNTYAMNWVRQASGKGLEWVARIRSKYNNYATYYADSVKDRFTISRDDSKSTLYLQMNSLKTEDTAVYYCARHGNFGQSYVSWFAYWGQGTTVTVSS VL: EIVMTQSPATLSVSPGERATLSCRSSTGAVTTSNYANWVQQKPGQAPRGLIGGTNKRAPGVPARFSGSGSGTEFTLTISSLQSEDFAVYYCALWYSNLWVFGQGTKLTVLR	16.8 nM	0.00515 s⁻¹	307000 M⁻¹ s⁻¹	15.3 nM	0.003 s⁻¹	196000 M⁻¹ s⁻¹	91.9 nM	–	–	–	–	–	–	–	–	–	–	–	–
Her2-hzsp34.80 (bispecific antibody, IgG1, V domains shown, 1+1 trastuzumab x hzsp34.80, IgG1 LALA knob-into-hole; also called Her2-sp34.80; copies: 1 + 1 + 1 + 1) VH 1: not shown VL 1: not shown VH 2: EVQLVESGGGLVQPGGSLKLSCAASGFTFNTAAMNWVRQASGKGLEWVGRIRSKYNNYATYYADSVKDRFTISRDDSKSTLYLQMNSLKTEDTAVYYCARHGNFGQSYVSWFAYWGQGTTVTVSS VL 2: QAVVTQEPSLTVSPGGTVTLTCRSSTGAVTTSNYANWVQQKPGQAPRGLIGGTNKRAPGVPARFSGSLLGDKAALTLLGAQPEDEAEYYCALWYSNLWVFGQGTKLTVL	–	–	–	–	–	–	–	–	–	–	–	–	–	987 nM	0.491 s⁻¹	497000 M⁻¹ s⁻¹	1310 nM	0.78 s⁻¹	596000 M⁻¹ s⁻¹
Her2-hzsp34.87 (bispecific antibody, IgG1, V domains shown, 1+1 trastuzumab x hzsp34.87, IgG1 LALA knob-into-hole; also called Her2-sp34.87; copies: 1 + 1 + 1 + 1) VH 1: not shown VL 1: not shown VH 2: EVQLVESGGGLVQPGGSLKLSCAASGFTFNTYAMNWVRQASGKGLEWVGRIRSKYNNYATYYADSVKDRFTISRDDSKSTLYLQMNSLKTEDTAVYYCARHYNFGQSYVSWFAYWGQGTTVTVSS VL 2: QAVVTQEPSLTVSPGGTVTLTCRSSTGAVTTSNYANWVQQKPGQAPRGLIGGTNKRAPGVPARFSGSLLGDKAALTLLGAQPEDEAEYYCALWYSNLWVFGQGTKLTVL	–	–	–	–	–	–	–	–	–	–	–	–	–	141 nM	0.0462 s⁻¹	327000 M⁻¹ s⁻¹	242 nM	0.035 s⁻¹	145000 M⁻¹ s⁻¹
Her2-hzsp34.99 (bispecific antibody, IgG1, V domains shown, 1+1 trastuzumab x hzsp34.99, IgG1 LALA knob-into-hole; also called Her2-sp34.99; copies: 1 + 1 + 1 + 1) VH 1: not shown VL 1: not shown VH 2: EVQLVESGGGLVQPGGSLKLSCAASGFTFNTYAMNWVRQASGKGLEWVGRIRSKYNNYATYYADSVKDRFTISRDDSKSTLYLQMNSLKTEDTAVYYCARHGNAYQSYVSWFAYWGQGTTVTVSS VL 2: QAVVTQEPSLTVSPGGTVTLTCRSSTGAVTTSNYANWVQQKPGQAPRGLIGGTNKRAPGVPARFSGSLLGDKAALTLLGAQPEDEAEYYCALWYSNLWVFGQGTKLTVL	–	–	–	–	–	–	–	–	–	–	–	–	–	627 nM	0.0817 s⁻¹	130000 M⁻¹ s⁻¹	1200 nM	0.1 s⁻¹	83400 M⁻¹ s⁻¹
Her2-hzsp34.101 (bispecific antibody, IgG1, V domains shown, 1+1 trastuzumab x hzsp34.101, IgG1 LALA knob-into-hole; also called Her2-sp34.101; copies: 1 + 1 + 1 + 1) VH 1: not shown VL 1: not shown VH 2: EVQLVESGGGLVQPGGSLKLSCAASGFTFNTYAMNWVRQASGKGLEWVGRIRSKYNNYATYYADSVKDRFTISRDDSKSTLYLQMNSLKTEDTAVYYCARHGNFGQSAASWFAYWGQGTTVTVSS VL 2: QAVVTQEPSLTVSPGGTVTLTCRSSTGAVTTSNYANWVQQKPGQAPRGLIGGTNKRAPGVPARFSGSLLGDKAALTLLGAQPEDEAEYYCALWYSNLWVFGQGTKLTVL	–	–	–	–	–	–	–	–	–	–	–	–	–	159 nM	0.101 s⁻¹	637000 M⁻¹ s⁻¹	179 nM	0.0987 s⁻¹	551000 M⁻¹ s⁻¹
hzsp34.45 (antibody, human IgG1, kappa, L234A L235A, V domains shown, IgG1 L234A L235A, kappa) VH: EVQLVESGGGLVQPGGSLKLSCAASGFTFNTYAMNWVRQASGKGLEWVARIRSKYNNYATYYADSVKDRFTISRDDSKSTLYLQMNSLKTEDTAVYYCARHGNFGQSYVSWFAYWGQGTTVTVSS VL: EIVMTQSPATLSVSPGERATLSCRSSTGAVTTSNYANWVQQKPGQAPRGLIGGTNKRAPGVPARFSGSGSGDEFTLTISSLQSEDFAVYYCALWYSNLWVFGQGTKLTVLR	18.4 nM	0.0065 s⁻¹	353000 M⁻¹ s⁻¹	26.9 nM	0.00521 s⁻¹	194000 M⁻¹ s⁻¹	122 nM	–	–	–	–	–	–	–	–	–	–	–	–
hzsp34.42 (antibody, human IgG1, kappa, L234A L235A, V domains shown, IgG1 L234A L235A, kappa) VH: EVQLVESGGGLVQPGGSLKLSCAASGFTFNTYAMNWVRQASGKGLEWVGRIRSKYNNYATYYADSVKDRFTISRDDSKNTLYLQMNSLKTEDTAVYYCARHGNFGNSYVSWFAYWGQGTTVTVSS VL: EIVMTQSPATLSVSPGERATLSCRSSTGAVTTSNYANWVQQKPGQAPRGLIGGTNKRAPGVPARFSGSGSGDEFTLTISSLQSEDFAVYYCALWYSNLWVFGQGTKLTVLR	14.7 nM	0.00526 s⁻¹	357000 M⁻¹ s⁻¹	10.2 nM	0.00248 s⁻¹	243000 M⁻¹ s⁻¹	39.2 nM	–	–	–	–	–	–	–	–	–	–	–	–
Her2-hzsp34.97 (bispecific antibody, IgG1, V domains shown, 1+1 trastuzumab x hzsp34.97, IgG1 LALA knob-into-hole; also called Her2-sp34.97; copies: 1 + 1 + 1 + 1) VH 1: not shown VL 1: not shown VH 2: EVQLVESGGGLVQPGGSLKLSCAASGFTFNTYAMNWVRQASGKGLEWVGRIRSKAGGYATYYADSVKDRFTISRDDSKSTLYLQMNSLKTEDTAVYYCARHGNFGQSYVSWFAYWGQGTTVTVSS VL 2: QAVVTQEPSLTVSPGGTVTLTCRSSTGAVTTSNYANWVQQKPGQAPRGLIGGTNKRAPGVPARFSGSLLGDKAALTLLGAQPEDEAEYYCALWYSNLWVFGQGTKLTVL	–	–	–	–	–	–	–	–	–	–	–	–	–	361 nM	0.191 s⁻¹	528000 M⁻¹ s⁻¹	327 nM	0.177 s⁻¹	543000 M⁻¹ s⁻¹
